By Kd is commonly meant the free concentration of one partner at which half of the binding sites on the other are occupied at equilibrium, for simple one-to-one binding. A high value points to a looser complex.

These results are taken from the Immune Epitope Database (IEDB).

The target in one assay is HLA-C*06:02. In words: IEDB peptide-MHC binding, purified MHC/competitive/fluorescence; filed as Kd, often an IC50 or EC50 that approximates it; ≥ and ≤ were set here for values at or beyond the usual limits of such assays. The settings on record: source organism: Giardia lamblia ATCC 50803.
The target in another assay is HLA-C*14:02. The assay is described as above. The settings on record: source organism: Giardia lamblia ATCC 50803.
The next assay deals with HLA-B*15:42. The description is as above. The settings on record: source organism: Giardia lamblia ATCC 50803.
A further assay addresses HLA-B*45:06. The description is as above. The settings on record: source organism: Giardia lamblia ATCC 50803.
Assay [1] has as its target HLA-B*46:01. Described as above. The settings on record: source organism: Giardia lamblia ATCC 50803.
The target in the next assay is HLA-B*83:01. The description is as above. The settings on record: source organism: Giardia lamblia ATCC 50803.
A further assay has as its target HLA-A*32:15. The assay is described as above. The settings on record: source organism: Giardia lamblia ATCC 50803.
In the next assay the target is HLA-C*04:01. The assay is described as above. The settings on record: source organism: Giardia lamblia ATCC 50803.
A further assay has as its target HLA-A*68:23. The description is as above. The settings on record: source organism: Giardia lamblia ATCC 50803.
The next assay concerns the target HLA-A*32:07. The assay is described as above. The settings on record: source organism: Giardia lamblia ATCC 50803.
The next assay concerns the target HLA-C*12:03. Description: IEDB peptide-MHC binding, purified MHC/direct/fluorescence; filed as Kd, often an IC50 or EC50 that approximates it; ≥ and ≤ were set here for values at or beyond the usual limits of such assays. The settings on record: source organism: Giardia lamblia ATCC 50803.
The target of a further assay is HLA-A*24:03. The assay is described as above. The settings on record: source organism: Giardia lamblia ATCC 50803.
Another assay has as its target HLA-A*30:01. Description: IEDB peptide-MHC binding, purified MHC/competitive/fluorescence; filed as Kd, often an IC50 or EC50 that approximates it; ≥ and ≤ were set here for values at or beyond the usual limits of such assays. The settings on record: source organism: Lyssavirus rabies.
For assay [2], the target named is HLA-A*31:01. The assay is described as above. The settings on record: source organism: Lyssavirus rabies.
The target of another assay is HLA-B*15:17. Described as above.
Another assay addresses HLA-A*02:06. The description is as above.
In the next assay the target is HLA-B*15:09. Described as above. The settings on record: source organism: Lyssavirus rabies.
For assay [3], the target named is HLA-A*11:01. The assay is described as above. The settings on record: source organism: Lyssavirus rabies.
Another assay has as its target HLA-B*27:05. Description: IEDB peptide-MHC binding, purified MHC/direct/fluorescence; filed as Kd, often an IC50 or EC50 that approximates it; ≥ and ≤ were set here for values at or beyond the usual limits of such assays.
A further assay addresses HLA-B*57:01. Described as above.
Another assay addresses HLA-A*01:01. The description is as above.
The target in assay [4] is HLA-A*68:02. Described as above. The settings on record: source organism: Lyssavirus rabies.
A further assay deals with HLA-A*03:01. The assay is described as above.
For assay [5], the target named is HLA-A*02:01. The assay is described as above. The settings on record: source organism: Lyssavirus rabies.
Assay [6] deals with HLA-A*69:01. The description is as above. The settings on record: source organism: Lyssavirus rabies.
A further assay deals with HLA-B*07:02. The description is as above.
For a further assay, the target named is HLA-B*18:01. Described as above.
The target in the next assay is HLA-B*58:01. Described as above.
A further assay has as its target HLA-B*15:01. The description is as above.
Another assay concerns the target HLA-B*48:01. Described as above.
For assay [7], the target named is HLA-A*26:03. Described as above. The settings on record: source organism: Lyssavirus rabies.
In the next assay the target is HLA-B*08:01. The description is as above. The settings on record: source organism: Lyssavirus rabies.
The target in another assay is HLA-B*73:01. Described as above. The settings on record: source organism: Lyssavirus rabies.
A further assay deals with HLA-A*26:02. Description: IEDB peptide-MHC binding, purified MHC/competitive/fluorescence; filed as Kd, often an IC50 or EC50 that approximates it; ≥ and ≤ were set here for values at or beyond the usual limits of such assays. The settings on record: source organism: Orthomarburgvirus marburgense.
For assay [8], the target named is HLA-A*68:02. The assay is described as above. The settings on record: source organism: Orthomarburgvirus marburgense.
The target in assay [9] is HLA-A*02:01. Described as above. The settings on record: source organism: Orthomarburgvirus marburgense.
Assay [10] deals with HLA-A*69:01. The description is as above. The settings on record: source organism: Orthomarburgvirus marburgense.
For assay [11], the target named is HLA-A*26:03. Described as above. The settings on record: source organism: Orthomarburgvirus marburgense.
The next assay concerns the target HLA-B*35:01. The assay is described as above. The settings on record: source organism: Orthomarburgvirus marburgense.
The target in another assay is HLA-B*40:01. In words: IEDB peptide-MHC binding, purified MHC/direct/fluorescence; filed as Kd, often an IC50 or EC50 that approximates it; ≥ and ≤ were set here for values at or beyond the usual limits of such assays. The settings on record: source organism: Marburg virus - Musoke, Kenya, 1980.
Assay [12] concerns the target HLA-A*31:01. Described as above. The settings on record: source organism: Marburg virus - Musoke, Kenya, 1980.
The target in assay [13] is HLA-B*46:01. Described as above. The settings on record: source organism: Marburg virus - Musoke, Kenya, 1980.
A further assay addresses HLA-B*08:02. The description is as above. The settings on record: source organism: Ravn virus - Ravn, Kenya, 1987.
Assay [14] has as its target HLA-A*11:01. The assay is described as above. The settings on record: source organism: Marburg virus - Musoke, Kenya, 1980.
Where [15] appears, read: source organism: Lyssavirus rabies.
The mark [16] stands for this setting: source organism: Orthomarburgvirus marburgense.
Where [17] appears, read: source organism: Marburg virus - Musoke, Kenya, 1980.

As to YTFFFTQYF, the Kd with HLA-C*06:02 was 1390 nM; in the assay with HLA-C*14:02 it was 79.4 nM; with HLA-B*15:42, not below 5000 nM; in the assay with HLA-B*45:06, not below 5000 nM; with HLA-B*46:01 [1], 342 nM; in the assay with HLA-B*83:01, not below 5000 nM. Further, the Kd with HLA-A*32:15 was 91.1 nM; with HLA-C*04:01 it was not below 5000 nM; in the assay with HLA-A*68:23 it was not above 0.1 nM; with HLA-A*32:07, 34.5 nM; with HLA-C*12:03, 44 nM; with HLA-A*24:03, 28.5 nM.
On to RQMKSGGRF, for which the Kd was not below 20000 nM in the assay with HLA-A*30:01; not below 20000 nM with HLA-A*31:01 [2]; 631 nM in the assay with HLA-B*15:17 (setting [15]); 476 nM with HLA-A*02:06 (setting [15]); not below 20000 nM with HLA-B*15:09; not below 20000 nM with HLA-A*11:01 [3]. Besides, the Kd with HLA-B*27:05 (setting [15]) was 275 nM; with HLA-B*57:01 (setting [15]) it was not below 20000 nM; with HLA-A*01:01 (setting [15]), not below 20000 nM; with HLA-A*68:02 [4], not below 20000 nM; with HLA-A*03:01 (setting [15]) it was not below 20000 nM; in the assay with HLA-A*02:01 [5], not below 20000 nM. The Kd with HLA-A*69:01 [6] was not below 20000 nM; with HLA-B*07:02 (setting [15]), not below 20000 nM; with HLA-B*18:01 (setting [15]), not below 20000 nM; with HLA-B*58:01 (setting [15]), not below 20000 nM; in the assay with HLA-B*15:01 (setting [15]), 119 nM; with HLA-B*48:01 (setting [15]), 1620 nM. The Kd with HLA-A*26:03 [7], with HLA-B*08:01 and in the assay with HLA-B*73:01 was not below 20000 nM in each case.
Turning to TVLEFILQK, the Kd with HLA-A*26:02 is not below 20000 nM; in the assay with HLA-B*15:17 (setting [16]) it was not below 20000 nM; with HLA-A*68:02 [8], 3880 nM; in the assay with HLA-A*02:06 (setting [16]), 776 nM; with HLA-A*02:01 [9], 1170 nM; with HLA-A*69:01 [10], 827 nM. Moreover, the Kd with HLA-A*26:03 [11], with HLA-B*35:01, in the assay with HLA-B*40:01, with HLA-B*27:05 (setting [17]), with HLA-B*57:01 (setting [17]) and with HLA-A*01:01 (setting [17]) was not below 20000 nM each time. The Kd is 119 nM with HLA-A*31:01 [12]; not below 20000 nM with HLA-B*46:01 [13]; 141 nM in the assay with HLA-A*03:01 (setting [17]); not below 20000 nM with HLA-B*07:02 (setting [17]); not below 20000 nM with HLA-B*08:02; not below 20000 nM in the assay with HLA-B*18:01 (setting [17]). Moreover, the Kd with HLA-B*58:01 (setting [17]) was not below 20000 nM; in the assay with HLA-B*15:01 (setting [17]) it was not below 20000 nM; with HLA-B*48:01 (setting [17]), not below 20000 nM; in the assay with HLA-A*11:01 [14] it was 2.3 nM.
